Data as given in US20260098072A1, “METHODS OF STIMULATING APPETITE AND/OR INCREASING BODY WEIGHT USING NON-NATURALLY OCCURRING MELANOCORTIN RECEPTOR ANTAGONIST ANALOGS” (Endevica Bio, Inc., priority 2022, published 2026).
One block for each molecule: values may come before it. Positions of bridges follow the written chain, without caps; N, C: chain ends. Non-standard residues stand in square brackets, D forms with d. Residues, ends and D or L forms follow the SMILES beside them. No end group written: not given here. d2Nal = N[C@H](Cc1ccc2ccccc2c1)C(=O)O; Nle = CCCC[C@H](N)C(=O)O

Assays:
human MC4R = target: T1, human MC4R (Homo sapiens, UniProt P32245); test: cAMP accumulation assay (HTRF), antagonist activity at MC4R; format: cell-based; conditions: for Hill Coefficient / Top (%): dose-response fit, MC4R
T1 construct: expressed in transfected cells; host or cells: HEK293/MC4R/CRE-GFP
Method: (§1) The antagonist activity of exemplary non-naturally occurring melanocortin analogs (SEQ ID NOs: 3, 4, 6, 9-11, 14, 15, and 291-309) at the melanocortin 3 receptor (MC3R) and melanocortin 4 (MC4R) receptor was measured via cAMP accumulation assay, according to the following procedure.
(§2) Recombinant cell lines shown in Table 1 were stimulated with melanocortin receptor antagonists and evaluated for cyclic adenosine monophosphate (cAMP) levels as a measurement of receptor activation. cAMP levels were quantified using Homogeneous Time-Resolved Fluorescence (HTRF). The stimulation and CAMP measurement were performed sequentially. First, the compound stimulated the G-protein coupled receptor (GPCR) which then induced downstream signaling, which was measured soon after. Cell lines and stimulated receptors used are detailed in Table 1.
(§3) Twenty-seven exemplary synthetic peptides were tested for antagonist activity at the human MC3R and MC4R at concentrations ranging from 0.1 nM to 1,000 nM. After stimulation, the level of cyclic adenosine monophosphate (CAMP) in each well was quantified via Homogenous Time-Resolved Fluorescence (HTRF) as a measurement of receptor activity. Dose-response curves and estimated IC50 values were then obtained for each antagonist peptide against the MC3R and MC4R. HS024 (TFA) and was used as a positive control for the antagonist activity of MC3R (FIG. 1A) and MC4R (FIG. 1B).

human MC3R = target: T2, human MC3R (Homo sapiens, UniProt P41968); test: cAMP accumulation assay (HTRF), antagonist activity at MC3R; format: cell-based; conditions: for Hill Coefficient / Top (%): dose-response fit, MC3R
T2 construct: expressed in transfected cells; host or cells: HEK293/CRE-luc/MC3R
Method: as §1, §2, §3

[1] = target: human melanocortin 3 receptor (MC3R) (human, UniProt P41968 1-323); test: cell-based or functional assay
[2] = target: human melanocortin 4 receptor (MC4R) (human, UniProt P32245 1-332); test: cell-based or functional assay
Chain of human melanocortin 4 receptor (MC4R) (P32245 whole entry): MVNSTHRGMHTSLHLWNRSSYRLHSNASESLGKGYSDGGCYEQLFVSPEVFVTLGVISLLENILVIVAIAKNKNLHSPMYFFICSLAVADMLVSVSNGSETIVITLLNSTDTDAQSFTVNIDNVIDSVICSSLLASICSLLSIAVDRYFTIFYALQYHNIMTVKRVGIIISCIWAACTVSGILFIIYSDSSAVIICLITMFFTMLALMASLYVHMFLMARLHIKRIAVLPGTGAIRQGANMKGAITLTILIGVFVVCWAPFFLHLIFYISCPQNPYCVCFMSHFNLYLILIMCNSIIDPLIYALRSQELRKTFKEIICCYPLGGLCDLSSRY

Chain of human melanocortin 3 receptor (MC3R) (P41968 whole entry): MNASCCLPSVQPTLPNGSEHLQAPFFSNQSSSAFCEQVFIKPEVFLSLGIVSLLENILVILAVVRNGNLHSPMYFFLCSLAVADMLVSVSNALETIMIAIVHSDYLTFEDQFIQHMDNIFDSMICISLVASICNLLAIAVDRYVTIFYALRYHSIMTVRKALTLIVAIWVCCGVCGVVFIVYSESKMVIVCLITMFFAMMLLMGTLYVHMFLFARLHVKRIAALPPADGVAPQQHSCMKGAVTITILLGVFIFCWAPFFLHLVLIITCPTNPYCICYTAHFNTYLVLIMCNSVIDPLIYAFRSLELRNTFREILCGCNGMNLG
T2 sequence (P41968 whole entry): as above
T1 sequence (P32245 whole entry): as the sequence (P32245 whole entry) above

B1: C2 (peptide)
peptide: Ac-LDPWRWKVP-NH2
modifications: lactam 2-7
SMILES: CC(=O)N[C@@H](CC(C)C)C(=O)N[C@H]1CC(=O)NCCCC[C@@H](C(=O)N[C@H](C(=O)N2CCC[C@H]2C(N)=O)C(C)C)NC(=O)[C@H](Cc2c[nH]c3ccccc23)NC(=O)[C@H](CCCNC(=N)N)NC(=O)[C@H](Cc2c[nH]c3ccccc23)NC(=O)[C@@H]2CCCN2C1=O
Max Activation % [1]: 0.27%
Max Activation % [2]: -3.3%

Molecule: IDPFFRWKVP [B8]
Max Activation % [1]: 4.86%
Max Activation % [2]: 13.6%

Molecule: LPWRWVP [C4]
Max Activation % [1]: -0.32%
Max Activation % [2]: -6.88%

Molecule: LDPFFRWKVP [B7]
Max Activation % [1]: 1.43%
Max Activation % [2]: -2.96%

B2: A2 (peptide)
peptide: Ac-[Nle]P[d2Nal]RW[dV][dP]-NH2
SMILES: CCCC[C@H](NC(C)=O)C(=O)N1CCC[C@H]1C(=O)N[C@H](Cc1ccc2ccccc2c1)C(=O)N[C@@H](CCCNC(=N)N)C(=O)N[C@@H](Cc1c[nH]c2ccccc12)C(=O)N[C@@H](C(=O)N1CCC[C@@H]1C(N)=O)C(C)C
Max Activation % [1]: 7.92%

Molecule: LDPWRWKVP (lactam 2-7) [C3]
Max Activation % [1]: 3.32%
Max Activation % [2]: 8.07%

Molecule: IPFFRWVP [B5]
Max Activation % [1]: 0.14%
Max Activation % [2]: -0.16%

Molecule: IPWRWVP [C5]
Max Activation % [1]: -0.49%
Max Activation % [2]: 2.47%

Molecule: VDPFFRWKVP [B9]
Max Activation % [1]: 1.08%
Max Activation % [2]: -3.71%

B3: C1 (peptide)
peptide: Ac-[Nle]DPWRWK[dV][dP]-NH2
modifications: lactam 2-7
SMILES: CCCC[C@H](NC(C)=O)C(=O)N[C@H]1CC(=O)NCCCC[C@@H](C(=O)N[C@@H](C(=O)N2CCC[C@@H]2C(N)=O)C(C)C)NC(=O)[C@H](Cc2c[nH]c3ccccc23)NC(=O)[C@H](CCCNC(=N)N)NC(=O)[C@H](Cc2c[nH]c3ccccc23)NC(=O)[C@@H]2CCCN2C1=O
Max Activation % [1]: 4.55%
Max Activation % [2]: 11.1%

Molecule: VPFFRWVP [B6]
Max Activation % [1]: 5%
Max Activation % [2]: 15.4%

The remaining lines, values ahead:

Emax (human MC4R; HEK293, HEK293/MC4R/CRE-GFP, 0.1 nM to 1,000 nM, read-out: Max Activation %): 41.5%
Hill Coefficient (human MC4R): 0.67
Top (%) (human MC4R): 2724.46%
Emax (human MC3R; HEK293/CRE-luc/MC3R, 0.1 nM to 1,000 nM, read-out: Max Activation %): 24.6%
IC50 (human MC3R; HEK293/CRE-luc/MC3R, estimated from dose-response curve): > 10 µM
Hill Coefficient (human MC3R): 1.04
Top (%) (human MC3R): 472.61%
Molecule: CCCC[C@H](NC(C)=O)C(=O)N[C@H]1CC(=O)NCCCC[C@@H](C(=O)N2CCC[C@@H]2C(=O)N[C@@H](C(N)=O)C(C)C)NC(=O)[C@H](Cc2c[nH]c3ccccc23)NC(=O)[C@H](CCCNC(=N)N)NC(=O)[C@@H](Cc2ccc3ccccc3c2)NC(=O)[C@H](Cc2c[nH]cn2)NC(=O)[C@@H]2CCCN2C1=O [Peptide D5, Ac-Nle-c(Asp-Pro-His-Dnal(2′)-Arg-Trp-Lys)-Dpro-Dval-NH2] (Ac-[Nle]DPH[d2Nal]RWK[dP][dV]-NH2; lactam 2-8)

Hill Coefficient (human MC4R): 0.69
Top (%) (human MC4R): 729.66%
Hill Coefficient (human MC3R): 0.34
Top (%) (human MC3R): 20.30%
Molecule: Ac-Leu-c(Asp-Pro-Phe-Phe-Arg-Trp-Lys)-Val-Pro-NH2 (Ac-LDPFFRWKVP-NH2; lactam 2-8; SMILES CC(=O)N[C@@H](CC(C)C)C(=O)N[C@H]1CC(=O)NCCCC[C@@H](C(=O)N[C@H](C(=O)N2CCC[C@H]2C(N)=O)C(C)C)NC(=O)[C@H](Cc2c[nH]c3ccccc23)NC(=O)[C@H](CCCNC(=N)N)NC(=O)[C@H](Cc2ccccc2)NC(=O)[C@H](Cc2ccccc2)NC(=O)[C@@H]2CCCN2C1=O) [Peptide B2]

Hill Coefficient (human MC4R): 48.53
Top (%) (human MC4R): −2.85%
Hill Coefficient (human MC3R): −0.48
Top (%) (human MC3R): 0.42%
Molecule: Ac-Leu-c(Asp-Pro-Trp-Arg-Trp-Lys)-Val-Pro-NH2 (Ac-LDPWRWKVP-NH2; lactam 2-7; SMILES CC(=O)N[C@@H](CC(C)C)C(=O)N[C@H]1CC(=O)NCCCC[C@@H](C(=O)N[C@H](C(=O)N2CCC[C@H]2C(N)=O)C(C)C)NC(=O)[C@H](Cc2c[nH]c3ccccc23)NC(=O)[C@H](CCCNC(=N)N)NC(=O)[C@H](Cc2c[nH]c3ccccc23)NC(=O)[C@@H]2CCCN2C1=O) [Peptide C2]

Hill Coefficient (human MC4R): 1.55
Top (%) (human MC4R): 18.76%
Hill Coefficient (human MC3R): 0.84
Top (%) (human MC3R): 177.39%
Molecule: Ac-Nle-c(Asp-His-Dnal(2′)-Arg-Trp-Pro-Lys)-Dval-Dpro-NH2 (Ac-[Nle]DH[d2Nal]RWPK[dV][dP]-NH2; lactam 2-8; SMILES CCCC[C@H](NC(C)=O)C(=O)N[C@H]1CC(=O)NCCCC[C@@H](C(=O)N[C@@H](C(=O)N2CCC[C@@H]2C(N)=O)C(C)C)NC(=O)[C@@H]2CCCN2C(=O)[C@H](Cc2c[nH]c3ccccc23)NC(=O)[C@H](CCCNC(=N)N)NC(=O)[C@@H](Cc2ccc3ccccc3c2)NC(=O)[C@H](Cc2c[nH]cn2)NC1=O) [Peptide D2]

Hill Coefficient (human MC4R): 7.57
Hill Coefficient (human MC3R): 1.05
Molecule: Ac-Nle-c(Asp-Pro-Phe-Phe-Arg-Trp-Lys)-Dval-Dpro-NH2 (Ac-[Nle]DPFFRWK[dV][dP]-NH2; lactam 2-8; SMILES CCCC[C@H](NC(C)=O)C(=O)N[C@H]1CC(=O)NCCCC[C@@H](C(=O)N[C@@H](C(=O)N2CCC[C@@H]2C(N)=O)C(C)C)NC(=O)[C@H](Cc2c[nH]c3ccccc23)NC(=O)[C@H](CCCNC(=N)N)NC(=O)[C@H](Cc2ccccc2)NC(=O)[C@H](Cc2ccccc2)NC(=O)[C@@H]2CCCN2C1=O) [Peptide B1]

Hill Coefficient (human MC4R): 0.08
Top (%) (human MC4R): 51.32%
Hill Coefficient (human MC3R): 0.23
Top (%) (human MC3R): 6.49%
Molecule: Ac-Nle-c(Asp-Pro-Trp-Arg-Trp-Lys)-Dval-Dpro-NH2 (Ac-[Nle]DPWRWK[dV][dP]-NH2; lactam 2-7; SMILES CCCC[C@H](NC(C)=O)C(=O)N[C@H]1CC(=O)NCCCC[C@@H](C(=O)N[C@@H](C(=O)N2CCC[C@@H]2C(N)=O)C(C)C)NC(=O)[C@H](Cc2c[nH]c3ccccc23)NC(=O)[C@H](CCCNC(=N)N)NC(=O)[C@H](Cc2c[nH]c3ccccc23)NC(=O)[C@@H]2CCCN2C1=O) [Peptide C1]

Hill Coefficient (human MC4R): 0.49
Top (%) (human MC4R): 20.03%
Hill Coefficient (human MC3R): 12.04
Top (%) (human MC3R): 4.40%
Molecule: IDPFFRWKVP [Peptide B8]

Hill Coefficient (human MC4R): 10.57
Hill Coefficient (human MC3R): −57.42
Top (%) (human MC3R): 0.80%
Molecule: IDPWRWKVP [Peptide C8]

Hill Coefficient (human MC4R): 1.22
Hill Coefficient (human MC3R): −0.76
Top (%) (human MC3R): 736.17%
Molecule: IPFFRWVP [Peptide B5]

Hill Coefficient (human MC4R): 1.13
Top (%) (human MC4R): 3.02%
Hill Coefficient (human MC3R): 13.82
Top (%) (human MC3R): −0.10%
Molecule: IPWRWVP [Peptide C5]

Hill Coefficient (human MC4R): −1.76
Top (%) (human MC4R): 516.09%
Hill Coefficient (human MC3R): −0.84
Top (%) (human MC3R): 7754.77%
Molecule: LDPFFRWKVP [Peptide B7]

Hill Coefficient (human MC4R): 1.62
Top (%) (human MC4R): 4.61%
Hill Coefficient (human MC3R): −0.13
Top (%) (human MC3R): 1.86%
Molecule: LDPWRWKVP [Peptide C7]

Hill Coefficient (human MC4R): 1.90
Top (%) (human MC4R): 16.60%
Hill Coefficient (human MC3R): 0.36
Top (%) (human MC3R): 29.62%
Molecule: LPFFRWVP [Peptide B4]

Hill Coefficient (human MC4R): −7.31
Top (%) (human MC4R): −1.97%
Hill Coefficient (human MC3R): −5.34
Molecule: LPWRWVP [Peptide C4]

Hill Coefficient (human MC4R): 9.04
Hill Coefficient (human MC3R): 1.00
Top (%) (human MC3R): 100.00%
Molecule: Leu-c(Asp-Pro-Phe-Phe-Arg-Trp-Lys)-Val-Pro (LDPFFRWKVP; lactam 2-8) [Peptide B3]

Hill Coefficient (human MC4R): 0.44
Top (%) (human MC4R): 9.36%
Hill Coefficient (human MC3R): 49.34
Top (%) (human MC3R): 3.18%
Molecule: Leu-c(Asp-Pro-Trp-Arg-Trp-Lys)-Val-Pro (LDPWRWKVP; lactam 2-7) [Peptide C3]

Hill Coefficient (human MC4R): −19.71
Top (%) (human MC4R): −0.55%
Hill Coefficient (human MC3R): 2.26
Top (%) (human MC3R): 1.22%
Molecule: VDPFFRWKVP [Peptide B9]

Hill Coefficient (human MC4R): 0.64
Top (%) (human MC4R): 219.95%
Hill Coefficient (human MC3R): 2.95
Top (%) (human MC3R): −64.92%
Molecule: VDPWRWKVP [Peptide C9]

Hill Coefficient (human MC4R): 0.28
Top (%) (human MC4R): 37.93%
Hill Coefficient (human MC3R): 1.62
Top (%) (human MC3R): 4.27%
Molecule: VPFFRWVP [Peptide B6]

Hill Coefficient (human MC4R): 2.07
Top (%) (human MC4R): 321.26%
Hill Coefficient (human MC3R): 1.00
Top (%) (human MC3R): 100.00%
Molecule: VPWRWVP [Peptide C6]
